Results as given in IntAct's records for PubMed 31515488.

B1: Tuftelin-interacting protein 11 (Homo sapiens), Q9UBB9 (parent)
chain: MSLSHLYRDGEGRIDDDDDERENFEITDWDLQNEFNPNRQRHWQTKEEATYGVWAERDSDDERPSFGGKRARDYSAPVNFISAGLKKGAAEEAELEDSDDEEKPVKQDDFPKDFGPRKLKTGGNFKPSQKGFAGGTKSFMDFGSWERHTKGIGQKLLQKMGYVPGRGLGKNAQGIINPIEAKQRKGKGAVGAYGSERTTQSMQDFPVVDSEEEAEEEFQKELSQWRKDPSGSKKKPKYSYKTVEELKAKGRISKKLTAPQKELSQVKVIDMTGREQKVYYSYSQISHKHNVPDDGLPLQSQQLPQSGKEAKAPGFALPELEHNLQLLIDLTEQEIIQNDRQLQYERDMVVNLFHELEKMTEVLDHEERVISNLSKVLEMVEECERRMQPDCSNPLTLDECARIFETLQDKYYEEYRMSDRVDLAVAIVYPLMKEYFKEWDPLKDCTYGTEIISKWKSLLENDQLLSHGGQDLSADAFHRLIWEVWMPFVRNIVTQWQPRNCDPMVDFLDSWVHIIPVWILDNILDQLIFPKLQKEVENWNPLTDTVPIHSWIHPWLPLMQARLEPLYSPIRSKLSSALQKWHPSDSSAKLILQPWKDVFTPGSWEAFMVKNIVPKLGMCLGELVINPHQQHMDAFYWVIDWEGMISVSSLVGLLEKHFFPKWLQVLCSWLSNSPNYEEITKWYLGWKSMFSDQVLAHPSVKDKFNEALDIMNRAVSSNVGAYMQPGARENIAYLTHTERRKDFQYEAMQERREAENMAQRGIGVAASSVPMNFKDLIETKAEEHNIVFMPVIGKRHEGKQLYTFGRIVIYIDRGVVFVQGEKTWVPTSLQSLIDMAK
partner: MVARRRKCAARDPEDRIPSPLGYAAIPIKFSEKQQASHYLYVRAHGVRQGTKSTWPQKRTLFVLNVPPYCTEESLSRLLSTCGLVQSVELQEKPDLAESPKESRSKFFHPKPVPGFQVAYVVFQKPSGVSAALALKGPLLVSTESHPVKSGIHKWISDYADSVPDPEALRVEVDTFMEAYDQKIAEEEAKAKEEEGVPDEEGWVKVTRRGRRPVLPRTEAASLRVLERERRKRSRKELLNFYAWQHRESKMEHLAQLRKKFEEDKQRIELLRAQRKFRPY
B2: Probable RNA-binding protein 46 (Homo sapiens), Q8TBY0 (parent)
chain: MNEENIDGTNGCSKVRTGIQNEAALLALMEKTGYNMVQENGQRKFGGPPPGWEGPPPPRGCEVFVGKIPRDMYEDELVPVFERAGKIYEFRLMMEFSGENRGYAFVMYTTKEEAQLAIRILNNYEIRPGKFIGVCVSLDNCRLFIGAIPKEKKKEEILDEMKKVTEGVVDVIVYPSATDKTKNRGFAFVEYESHRAAAMARRKLIPGTFQLWGHTIQVDWADPEKEVDEETMQRVKVLYVRNLMISTTEETIKAEFNKFKPGAVERVKKLRDYAFVHFFNREDAVAAMSVMNGKCIDGASIEVTLAKPVNKENTWRQHLNGQISPNSENLIVFANKEESHPKTLGKLPTLPARLNGQHSPSPPEVERCTYPFYPGTKLTPISMYSLKSNHFNSAVMHLDYYCNKNNWAPPEYYLYSTTSQDGKVLLVYKIVIPAIANGSQSYFMPDKLCTTLEDAKELAAQFTLLHLDYNFHRSSINSLSPVSATLSSGTPSVLPYTSRPYSYPGYPLSPTISLANGSHVGQRLCISNQASFF
B3: Radial spoke head 1 homolog (Homo sapiens), Q8WYR4 (parent)
chain: MSDLGSEELEEEGENDIGEYEGGRNEAGERHGRGRARLPNGDTYEGSYEFGKRHGQGIYKFKNGARYIGEYVRNKKHGQGTFIYPDGSRYEGEWANDLRHGHGVYYYINNDTYTGEWFAHQRHGQGTYLYAETGSKYVGTWVNGQQEGTAELIHLNHRYQGKFLNKNPVGPGKYVFDVGCEQHGEYRLTDMERGEEEEEEELVTVVPKWKATQITELALWTPTLPKKPTSTDGPGQDAPGAESAGEPGEEAQALLEGFEGEMDMRPGDEDADVLREESREYDQEEFRYDMDEGNINSEEEETRQSDLQD
partner: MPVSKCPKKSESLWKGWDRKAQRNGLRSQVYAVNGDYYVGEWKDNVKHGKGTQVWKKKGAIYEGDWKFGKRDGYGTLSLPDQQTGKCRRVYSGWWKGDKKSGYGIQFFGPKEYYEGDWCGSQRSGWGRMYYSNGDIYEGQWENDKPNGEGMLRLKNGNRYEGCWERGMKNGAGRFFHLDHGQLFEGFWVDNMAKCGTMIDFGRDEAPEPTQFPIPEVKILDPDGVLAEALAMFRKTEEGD
B4: Pyridine nucleotide-disulfide oxidoreductase domain-containing protein 1 (Homo sapiens), Q8WU10 (parent)
chain: MEAARPPPTAGKFVVVGGGIAGVTCAEQLATHFPSEDILLVTASPVIKAVTNFKQISKILEEFDVEEQSSTMLGKRFPNIKVIESGVKQLKSEEHCIVTEDGNQHVYKKLCLCAGAKPKLICEGNPYVLGIRDTDSAQEFQKQLTKAKRIMIIGNGGIALELVYEIEGCEVIWAIKDKAIGNTFFDAGAAEFLTSKLIAEKSEAKIAHKRTRYTTEGRKKEARSKSKADNVGSALGPDWHEGLNLKGTKEFSHKIHLETMCEVKKIYLQDEFRILKKKSFTFPRDHKSVTADTEMWPVYVELTNEKIYGCDFIVSATGVTPNVEPFLHGNSFDLGEDGGLKVDDHMHTSLPDIYAAGDICTTSWQLSPVWQQMRLWTQARQMGWYAAKCMAAASSGDSIDMDFSFELFAHVTKFFNYKVVLLGKYNAQGLGSDHELMLRCTKGREYIKVVMQNGRMMGAVLIGETDLEETFENLILNQMNLSSYGEDLLDPNIDIEDYFD
partner: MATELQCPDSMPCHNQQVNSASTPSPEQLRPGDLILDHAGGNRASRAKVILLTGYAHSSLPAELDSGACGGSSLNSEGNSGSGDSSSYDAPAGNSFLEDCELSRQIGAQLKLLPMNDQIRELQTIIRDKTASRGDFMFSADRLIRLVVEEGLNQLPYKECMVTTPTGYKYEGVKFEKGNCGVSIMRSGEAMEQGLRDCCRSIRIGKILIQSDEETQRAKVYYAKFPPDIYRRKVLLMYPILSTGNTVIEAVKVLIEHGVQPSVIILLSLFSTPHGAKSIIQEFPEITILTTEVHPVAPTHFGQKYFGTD
B5: Elongin-A2 (Homo sapiens), Q8IYF1 (parent)
chain: MAAGSTTLHAVEKLQVRLATKTEPKKLEKYLQKLSALPMTADILAETGIRKTVKRLRKHQHVGDFARDLAARWKKLVLVDRNTRPGPQDPEESASRQRFGEALQDQEKAWGFPENATAPRSPSHSPEHRRTARRTPPGQQRPHPRSHSREPRAERKCPRIAPADSGRYRASPTRTAPLRMPEGPEPAAPGKQPGRGHTHAAQGGPLLCPGCQGQPQGKAVVSHSKGHKSSRQEKRPLCAQGDWHSPTLIREKSCGACLREETPRMPSWASARDRQPSDFKTDKEGGQAGSGQRVPALEEAPDSHQKRPQHSHSNKKRPSLDGRDPGNGTHGLSPEEKEQLSNDRETQEGKPPTAHLDRTSVSSLSEVEEVDMAEEFEQPTLSCEKYLTYDQLRKQKKKTGKSATTALGDKQRKANESKGTRESWDSAKKLPPVQESQSERLQAAGADSAGPKTVPSHVFSELWDLSEAWMQANYDPLSDSDSMTSQAKPEALSSPKFREEAAFPGRRVNAKMPVYSGSRPACQLQVPTLRQQCAQVLRNNPDALSDVGEVPYWVLEPVLEGWRPDQLYRRKKDNHALVRETDELRRNHCFQDFKEEKPQENKTWREQYLRLPDAPEQRLRVMTTNIRSARGNNPNGREAKMICFKSVAKTPYDTSRRQEKSAGDADPENGEIKPASKPAGSSHTPSSQSSSGGGRDSSSSILRWLPEKRANPCLSSSNEHAAPAAKTRKQAAKKVAPLMAKAIRDYKRRFSRR
partner: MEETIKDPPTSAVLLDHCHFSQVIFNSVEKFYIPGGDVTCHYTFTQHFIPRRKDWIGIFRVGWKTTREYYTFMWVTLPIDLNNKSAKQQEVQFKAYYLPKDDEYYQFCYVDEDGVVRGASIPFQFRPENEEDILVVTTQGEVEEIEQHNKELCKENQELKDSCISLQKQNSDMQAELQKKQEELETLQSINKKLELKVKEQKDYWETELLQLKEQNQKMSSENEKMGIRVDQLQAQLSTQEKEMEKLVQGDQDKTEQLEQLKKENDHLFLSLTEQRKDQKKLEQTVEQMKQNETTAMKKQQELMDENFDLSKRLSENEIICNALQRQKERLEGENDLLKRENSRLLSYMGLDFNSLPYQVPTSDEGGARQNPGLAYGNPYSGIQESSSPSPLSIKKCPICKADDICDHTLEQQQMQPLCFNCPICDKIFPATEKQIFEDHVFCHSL

Variants of: B1
Settings: with rrp7a_human RRP7A

Variant	effect of a mutation on the interaction
M140V	with no effect

Variants of: B2
Settings: with rbpms_human RBPMS

Variant	effect of a mutation on the interaction
I126M	with no effect

Variants of: B3
Settings: with morn3_human MORN3, Q6PF18

Variant	effect of a mutation on the interaction
G248R	with no effect
G144R	with no effect

Variants of: B4
Settings: with upp_human UPRT

Variant	effect of a mutation on the interaction
R374K	with no effect

Variants of: B5
Settings: with caco2_human CALCOCO2, Q13137

Variant	effect of a mutation on the interaction
T6S	with no effect
